The target in the assay is T1, recombinant human VCAM-1 (human, UniProt P19320 25-698).
T1 construct: vascular cell adhesion molecule 1 (VCAM-1), human, recombinant; A bought recombinant VCAM-1 is likely the soluble extracellular part, perhaps with a tag or Fc; also called recombinant VCAM-1; vascular cell adhesion molecule 1; source: bought: R&D Systems
T1 sequence (looked up): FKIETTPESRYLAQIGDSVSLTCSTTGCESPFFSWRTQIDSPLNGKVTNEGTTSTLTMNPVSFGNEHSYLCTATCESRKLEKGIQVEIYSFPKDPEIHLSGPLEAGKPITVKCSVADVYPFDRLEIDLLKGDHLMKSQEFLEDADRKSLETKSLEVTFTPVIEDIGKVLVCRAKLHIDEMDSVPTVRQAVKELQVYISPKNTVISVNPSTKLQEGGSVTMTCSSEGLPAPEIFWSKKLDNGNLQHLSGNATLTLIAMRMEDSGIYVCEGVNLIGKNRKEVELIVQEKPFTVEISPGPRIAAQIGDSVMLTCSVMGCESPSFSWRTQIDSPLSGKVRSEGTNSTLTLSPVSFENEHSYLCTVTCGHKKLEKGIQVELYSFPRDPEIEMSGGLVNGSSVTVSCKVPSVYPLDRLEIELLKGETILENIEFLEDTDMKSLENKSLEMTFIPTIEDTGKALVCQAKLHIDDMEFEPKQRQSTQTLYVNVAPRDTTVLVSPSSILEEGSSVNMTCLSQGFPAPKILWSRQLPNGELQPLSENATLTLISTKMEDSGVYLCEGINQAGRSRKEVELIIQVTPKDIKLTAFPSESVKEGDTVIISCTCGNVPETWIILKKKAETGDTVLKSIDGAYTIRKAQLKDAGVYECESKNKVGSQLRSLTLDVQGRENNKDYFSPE
The experiment in a line: blue-shift of the quantum dot fluorescence peak (spectra by confocal microscope); VQDs mixed with recombinant human VCAM-1 in tube in 10:1 and 1:1 molar ratios, 5 hours at room temperature; a drop dried on a slide; excitation 405 nm; blue-shift seen at 1:1, not at 10:1. As to conditions: both partners purified.

Side chains are listed from the residue outwards. Ends that are not written are not given here. amino‑PEG‑coated CdSeTe/ZnS quantum dot = amino-PEG-coated CdSeTe/ZnS quantum dot; sulfo‑SMCC = sulfosuccinimidyl-4-(N-maleimidomethyl)cyclohexane-1-carboxylate

B1: VCAM-1 binding peptide functionalized QDs (VQDs) (peptide)
peptide: VHPKQHRGGSKGC([sulfo‑SMCC-amino‑PEG‑coated CdSeTe/ZnS quantum dot])
notes: source: synthetic peptide (Innovagen, Sweden), conjugated to Qdot 705 ITK Amino (PEG) Quantum Dots (Invitrogen) with sulfo-SMCC
On to B1, for which the binding result is “binds”.

The values are drawn from publication PMC3877406, “Characterization of VCAM-1-Binding Peptide-Functionalized Quantum Dots for Molecular Imaging of Inflamed Endothelium” (PLoS ONE, 2013).
